Data taken from the supplement of paper PMC10567573.

B1: RAB11B (parent)
chain: AVPTDEARAFAEKNNLSFIETSAL
B2: ZNF649 (parent)
chain: DECEKAYFYMSCLVKHKRIHSREK

Variants of: B1
Assay: protein stability index of a GFP-peptide fusion (GPS, HEK-293T) (PSI 1-6); higher = more stable
Details: c terminus: a fixed tail appended
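Note: lentivirally expressed fusions sorted by FACS into six bins by GFP to DsRed ratio, PSI derived from sequencing read proportions per bin multiplied by bin number.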

Protein stability index of substitutions, site by site:
E20: S 3.18, T 2.44, V 1.95, W 1.32, Y 2.31
T21: A 3.41, C 2.85, D 4.39, E 4.67, F 2.34, G 2.38, H 3.06, I 2.3, K 3.65, L 3.08, M 3.35, N 2.86, P 2.35, Q 4.12, R 3.42, S 3.64, V 1.52, W 2.76, Y 2
S22: A 2.71, C 3.36, D 4.17, E 4.06, F 2.52, G 2.85, H 2.74, I 2.49, K 3.69, L 3.08, M 2.83, N 3.69, P 4.02, Q 3.56, R 3.13, T 2.98, V 3.19, W 2.91, Y 1.96
A23: C 2.9, D 4.11, E 4.41, F 2.14, G 3.96, H 2.62, I 2.09, K 3.28, L 2.4, M 2.3, N 2.88, P 2.86, Q 2.86, R 2.47, S 3.38, T 2.77, V 1.75, W 2.15, Y 2.43
L24: A 3.49, C 3.38, D 5.12, E 4.74, F 2.43, G 4.49, H 4.29, I 3.5, K 4.15, M 3.13, N 4.87, P 4.55, Q 3.98, R 2.8, S 4.25, T 3.55, V 3.57, W 2.47, Y 3.21

Variants of: B2
Assay: as above
Details: c terminus: a fixed tail appended

Protein stability index of substitutions, site by site:
L13: S 2.79, H 2.95, E 3.61, P 3.1, I 2.29, Y 2.21, G 3.24, M 3.25, K 2.68, A 3.07
D1: V 1.57, G 1.92, N 2.72, Q 2.44, M 2.06, T 2.9, W 2.2, R 2.03, C 1.98, F 1.98, L 1.98, Y 2.17, S 2.81, K 2
V14: M 2.18, E 3.38, W 1.64, I 2.11, G 2.9, T 3.09, C 2.33, K 3.41, Y 2.5, H 3.86, A 2.88, P 3.27, R 3.12, F 1.78, L 2.63
H16: N 2.75, C 1.76, W 2.29, E 3.53, L 1.84, F 1.79, Q 2.64, R 2.82, Y 2.11, G 3.24, M 1.98, P 2.92
M10: T 3.19, W 2.36, V 2.38, P 3.16, Y 3.11, D 3.97, L 2.19, Q 4.12, N 4.14, G 2.56, K 3.74, I 1.86, F 2.33
K15: W 1.53, R 2.12, F 1.87, G 2.29, S 2.34, D 3.24, E 2.54, Y 1.92, I 2.18, C 2.41, L 2.15, M 1.9
F8: Q 3.75, T 3.52, R 2.82, A 3.44, H 3.79, M 3.36, K 3.6
E4: V 1.79, Q 2.34, D 2.83, T 2.88, I 2.17, K 1.66, G 1.76, L 2.18, A 1.62, Y 2.01, M 1.44, R 2.33, H 2.26, N 2, F 1.92
K17: N 2.45, L 1.91, P 2.35, M 1.61, Y 2.14, S 2.19, H 2.05, A 2.94
K5: R 2.5, H 2.79, A 2.71, D 3.36, Q 3.08, S 2.44, L 2.61, W 2.82, C 2.52
A6: K 2.56, D 3.52, E 3.01, N 2.65, T 2.55, H 2.58, W 2.03, L 2.08, C 2.08, P 2.79, M 1.9
H20: Y 2.59, G 2.55, F 2.88, D 3.33, T 2.12, L 2.48, E 3.6, K 2.6, M 2.1, Q 2.6
R18: L 1.73, S 2.56, F 2.4, Q 2.56, I 2.08, G 2.72, D 2.87, M 2.53, A 2.53, W 2.34, P 2.48, N 3.21, H 2.62
C12: H 3.12, E 3.54, A 2.83, Y 2.43, W 2.33, P 3.05, S 3.68, F 2.69, I 1.64
K24: S 3.13, D 3.02, P 2.46, Q 2.56, F 1.85, V 2.05, A 2.1, T 1.98, Y 2.05
E23: N 2.38, Q 2.99, R 3.04, F 2.15, C 3.15, Y 2.17, M 1.8, H 2.36
C3: F 1.91, I 1.81, K 2.88, R 2.33, E 3.97, L 1.8, T 2.9, M 2.4
Y7: E 3.7, S 3.3, Q 3.99, C 3.25, V 2.68, F 2.88, M 2.19, W 2.25, R 3.55
S11: C 2.13, W 1.33, V 1.87, H 2.82, G 3.21, D 3.55, E 2.62, A 2.07
I19: L 2.4, T 2.98, Q 3.42, S 3.36, H 3.15, F 2.53, K 2.9, G 3.27, M 2.66, N 2.97
E2: F 2.82, R 2.08, H 2.03, D 2.21, Y 4.44, K 2.17, G 2.29, S 1.72, Q 2.49, L 2.25
Y9: K 3.73, S 3.56, H 3.03, L 2.35, I 2.42, A 3.71, R 3.9, T 3.94, W 3.49, M 2.57, G 4.26, N 3.93, E 3
S21: C 3.33, T 2.15, V 2.65, R 2.58, G 2.29, N 2.98, E 2.85, F 1.91, P 2.08, K 2.77, L 2.14
R22: P 2.89, W 1.71, Y 2.16, N 2.82, L 1.43, C 2.36, K 3.08, S 2.08, G 2.19
